The record followed here is patent US20120276098A1 (GlaxoSmithKline, published 2012).

B1: DAT 0120: GLP-1 (7-37) A8G, helical linker, DOM7h-14 fusion (other)
chain: HGEGTFTSDVSSYLEGQAAKEFIAWLVKGRGKEAAAKEAAAKEAAAKELAAKEAAAKEAAAKEAAAKELAADIQMTQSPSSLSASVGDRVTITCRASQWIGSQLSWYQQKPGKAPKLLIMWRSSLQSGVPSRFSGSGSGTDFTLTISSLQPEDFATYYCAQGAALPRTFGQGTKVEIKR
notes: also called DAT 0120: GLP-1 A8G, helical linker, DOM7h-14 fusion
B2: Rat serum albumin (other, UniProt P02770 25-608, looked up)
chain: EAHKSEIAHRFKDLGEQHFKGLVLIAFSQYLQKCPYEEHIKLVQEVTDFAKTCVADENAENCDKSIHTLFGDKLCAIPKLRDNYGELADCCAKQEPERNECFLQHKDDNPNLPPFQRPEAEAMCTSFQENPTSFLGHYLHEVARRHPYFYAPELLYYAEKYNEVLTQCCTESDKAACLTPKLDAVKEKALVAAVRQRMKCSSMQRFGERAFKAWAVARMSQRFPNAEFAEITKLATDVTKINKECCHGDLLECADDRAELAKYMCENQATISSKLQACCDKPVLQKSQCLAEIEHDNIPADLPSIAADFVEDKEVCKNYAEAKDVFLGTFLYEYSRRHPDYSVSLLLRLAKKYEATLEKCCAEGDPPACYGTVLAEFQPLVEEPKNLVKTNCELYEKLGEYGFQNAVLVRYTQKAPQVSTPTLVEAARNLGRVGTKCCTLPEAQRLPCVEDYLSAILNRLCVLHEKTPVSEKVTKCCSGSLVERRPCFSALTVDETYVPKEFKAETFTFHSDICTLPDKEKQIKKQTALAELVKHKPKATEDQLKTVMGDFAQFVDKCCKAADKDNCFATEGPNLVARSKEALA
notes: also called RSA

Common to all, as to test: SPR (Biacore), serum albumin immobilised on CM5 chip, fusion flowed at 16 nM to 2 uM
The assay “Rat serum albumin” has as its target B2.
For another assay, the target named is T1, Mouse serum albumin (mouse, UniProt P07724 25-608).
T1 construct: also called MSA
T1 sequence (P07724 25-608 limits assumed): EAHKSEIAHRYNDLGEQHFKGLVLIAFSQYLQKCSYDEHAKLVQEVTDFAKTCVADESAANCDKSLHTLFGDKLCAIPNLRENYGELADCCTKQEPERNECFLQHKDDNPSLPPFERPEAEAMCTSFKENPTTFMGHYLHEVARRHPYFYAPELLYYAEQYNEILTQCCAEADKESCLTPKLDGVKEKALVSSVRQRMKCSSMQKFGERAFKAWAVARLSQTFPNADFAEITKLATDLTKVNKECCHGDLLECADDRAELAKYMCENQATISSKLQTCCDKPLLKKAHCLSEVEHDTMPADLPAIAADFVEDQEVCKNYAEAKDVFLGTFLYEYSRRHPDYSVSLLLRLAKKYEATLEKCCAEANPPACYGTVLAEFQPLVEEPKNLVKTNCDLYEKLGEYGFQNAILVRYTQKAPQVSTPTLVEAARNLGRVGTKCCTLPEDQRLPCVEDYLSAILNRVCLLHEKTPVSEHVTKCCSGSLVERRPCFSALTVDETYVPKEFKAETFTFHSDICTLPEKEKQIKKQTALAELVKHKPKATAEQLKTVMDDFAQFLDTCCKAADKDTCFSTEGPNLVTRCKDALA

The target in another assay is T2, Human serum albumin (human, UniProt P02768 25-609).
T2 construct: also called HSA

Assay [1] addresses DAT 0117: Exendin 4, helical linker, DOM7h-14 fusion.

As for B1, the results for the Kd in the assay with Rat serum albumin, with Mouse serum albumin and with Human serum albumin were 800 nM, 110 nM and 110 nM, respectively.

Take B2: the Kd in assay [1] was found to be 700 nM.

By Kd is commonly meant the equilibrium constant for the complex coming apart. Low readings indicate a tighter complex, high ones a looser complex.
